Read-outs that look alike come from different tables or passages of the source.
Assays:
[1] = proBNP/BNP ratio in NRVM medium; conditions: glycan lost
[2] = proBNP/BNP ratio in human iPS-CM medium; conditions: glycan lost; control: control oligo
[3] = proBNP/BNP ratio in cardiac fibroblast medium; conditions: glycan lost; control: WT-proBNP
[4] = gel filtration: proBNP peak relative to mature BNP peak; conditions: glycan lost; control: WT-proBNP
[5] = control: control oligo, WT-proBNP

## proBNP (prohormone for brain natriuretic peptide): T48/T71glyco (T36A, S37A, S44A, S53A, T58A)
O-glycosylation other at S37
  other: increases
O-glycosylation other at S44
  other: increases
O-glycosylation other at S53
  other: increases
O-glycosylation other at T36
  other: increases
O-glycosylation other at T58
  other: increases

## proBNP (prohormone for brain natriuretic peptide): non-glyco versus T71glyco (only Thr71 preserved, other 6 sites Ala)
O-glycosylation other at T71
  other: increases

## proBNP (prohormone for brain natriuretic peptide): T48A/T71A
O-glycosylation other at T48
  other: increases
O-glycosylation other at T71
  other: increases

## proBNP (prohormone for brain natriuretic peptide): T71A
O-glycosylation other at T71
  other: increases

## proBNP (prohormone for brain natriuretic peptide): GALNT1 or GALNT2 siRNA knockdown
O-glycosylation other at T48
  other: increases
O-glycosylation other at T71
  other: increases

## human proBNP (prohormone for brain natriuretic peptide): GALNT2 siRNA
[1]; [5]
  other: proteolytic processing: increases
[2]
  other: proteolytic processing: increases

## proBNP (prohormone for brain natriuretic peptide): T71A (cardiac fibroblasts)
O-glycosylation other at T71
  other: increases

## human proBNP (prohormone for brain natriuretic peptide): T48A/T71A
[1]; control: WT-proBNP
  other: proteolytic processing: increases

## human proBNP (prohormone for brain natriuretic peptide): T48A
[1]; control: WT-proBNP
  other: proteolytic processing: increases
[3]
  other: proteolytic processing: increases
[4]
  other: proteolytic processing: increases

## proBNP (prohormone for brain natriuretic peptide): non-glyco versus T48glyco (only Thr48 preserved, other 6 sites Ala)
O-glycosylation other at T48
  other: increases

## human proBNP (prohormone for brain natriuretic peptide): non-glyco
[1]; control: WT-proBNP
  other: proteolytic processing: increases

## human proBNP (prohormone for brain natriuretic peptide): GALNT1 siRNA
[1]; [5]
  other: proteolytic processing: increases
[2]
  other: proteolytic processing: increases

## proBNP (prohormone for brain natriuretic peptide): T48A (cardiac fibroblasts)
O-glycosylation other at T48
  other: increases

## human proBNP (prohormone for brain natriuretic peptide): T48/T71glyco
[1]; control: WT-proBNP
  other: proteolytic processing: increases

## proBNP (prohormone for brain natriuretic peptide): T48A
O-glycosylation other at T48
  other: increases

## human proBNP (prohormone for brain natriuretic peptide): T71A
[1]; control: WT-proBNP
  other: proteolytic processing: increases
[3]
  other: proteolytic processing: increases
[4]
  other: proteolytic processing: increases

Source: PMC5523735
